US20040002124A1

Tests used:
[1] = molecular target: α6β1 integrin on human cells (human) (UniProt P23229); test: cell-based or functional assay
[2] = molecular target: αVβ3 integrin on cells (human) (UniProt P06756); test: cell-based or functional assay
αVβ3 integrin on cells (human), sequence (P06756 31-1048, chain 1 of 2): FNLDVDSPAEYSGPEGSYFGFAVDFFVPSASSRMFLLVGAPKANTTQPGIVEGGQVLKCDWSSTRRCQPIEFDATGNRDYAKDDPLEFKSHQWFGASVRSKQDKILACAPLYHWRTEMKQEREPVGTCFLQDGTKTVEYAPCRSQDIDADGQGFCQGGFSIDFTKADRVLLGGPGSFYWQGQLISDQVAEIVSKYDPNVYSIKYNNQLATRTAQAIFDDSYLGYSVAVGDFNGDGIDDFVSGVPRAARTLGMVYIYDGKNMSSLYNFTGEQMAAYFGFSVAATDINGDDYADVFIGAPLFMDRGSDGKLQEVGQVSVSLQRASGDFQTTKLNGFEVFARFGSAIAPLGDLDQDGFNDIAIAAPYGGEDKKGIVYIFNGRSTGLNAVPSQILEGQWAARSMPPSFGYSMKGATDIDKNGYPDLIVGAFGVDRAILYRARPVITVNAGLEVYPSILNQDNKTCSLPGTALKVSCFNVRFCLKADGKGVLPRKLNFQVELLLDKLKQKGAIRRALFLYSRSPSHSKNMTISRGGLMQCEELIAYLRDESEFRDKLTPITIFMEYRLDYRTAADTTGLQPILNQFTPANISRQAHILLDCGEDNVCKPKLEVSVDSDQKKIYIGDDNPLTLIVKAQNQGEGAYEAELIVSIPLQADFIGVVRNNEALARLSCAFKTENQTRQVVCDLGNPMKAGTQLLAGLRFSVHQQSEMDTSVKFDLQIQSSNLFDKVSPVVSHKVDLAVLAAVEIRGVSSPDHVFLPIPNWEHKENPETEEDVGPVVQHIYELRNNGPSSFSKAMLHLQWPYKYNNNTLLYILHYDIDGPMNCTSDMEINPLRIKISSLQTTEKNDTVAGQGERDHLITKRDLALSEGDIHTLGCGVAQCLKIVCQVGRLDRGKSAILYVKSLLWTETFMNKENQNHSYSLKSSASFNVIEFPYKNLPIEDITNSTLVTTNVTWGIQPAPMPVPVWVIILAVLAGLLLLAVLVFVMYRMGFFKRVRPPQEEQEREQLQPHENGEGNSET
αVβ3 integrin on cells (human), sequence (P05106 27-788, chain 2 of 2, further chain): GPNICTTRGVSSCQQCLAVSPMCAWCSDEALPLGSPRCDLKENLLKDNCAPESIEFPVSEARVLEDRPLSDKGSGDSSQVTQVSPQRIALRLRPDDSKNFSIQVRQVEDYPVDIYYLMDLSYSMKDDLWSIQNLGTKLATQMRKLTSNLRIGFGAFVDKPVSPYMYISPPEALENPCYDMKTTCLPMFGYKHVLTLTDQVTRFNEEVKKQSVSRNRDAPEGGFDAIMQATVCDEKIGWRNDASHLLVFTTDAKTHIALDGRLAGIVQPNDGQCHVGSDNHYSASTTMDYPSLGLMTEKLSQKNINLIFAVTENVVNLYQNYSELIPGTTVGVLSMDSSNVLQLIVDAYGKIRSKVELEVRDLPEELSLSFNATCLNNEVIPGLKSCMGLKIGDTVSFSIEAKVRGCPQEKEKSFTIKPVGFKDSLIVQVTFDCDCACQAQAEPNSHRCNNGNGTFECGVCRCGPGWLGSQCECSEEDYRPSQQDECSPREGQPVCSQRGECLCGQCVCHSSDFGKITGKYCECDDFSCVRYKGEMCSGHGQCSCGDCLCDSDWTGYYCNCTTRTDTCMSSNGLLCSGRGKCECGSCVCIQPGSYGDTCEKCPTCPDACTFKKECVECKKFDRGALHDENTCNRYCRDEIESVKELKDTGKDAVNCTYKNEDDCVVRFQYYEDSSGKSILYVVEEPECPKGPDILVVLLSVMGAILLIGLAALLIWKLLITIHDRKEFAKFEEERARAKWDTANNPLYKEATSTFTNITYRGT

α6β1 integrin on human cells (human), sequence (P23229 24-1130, chain 1 of 2): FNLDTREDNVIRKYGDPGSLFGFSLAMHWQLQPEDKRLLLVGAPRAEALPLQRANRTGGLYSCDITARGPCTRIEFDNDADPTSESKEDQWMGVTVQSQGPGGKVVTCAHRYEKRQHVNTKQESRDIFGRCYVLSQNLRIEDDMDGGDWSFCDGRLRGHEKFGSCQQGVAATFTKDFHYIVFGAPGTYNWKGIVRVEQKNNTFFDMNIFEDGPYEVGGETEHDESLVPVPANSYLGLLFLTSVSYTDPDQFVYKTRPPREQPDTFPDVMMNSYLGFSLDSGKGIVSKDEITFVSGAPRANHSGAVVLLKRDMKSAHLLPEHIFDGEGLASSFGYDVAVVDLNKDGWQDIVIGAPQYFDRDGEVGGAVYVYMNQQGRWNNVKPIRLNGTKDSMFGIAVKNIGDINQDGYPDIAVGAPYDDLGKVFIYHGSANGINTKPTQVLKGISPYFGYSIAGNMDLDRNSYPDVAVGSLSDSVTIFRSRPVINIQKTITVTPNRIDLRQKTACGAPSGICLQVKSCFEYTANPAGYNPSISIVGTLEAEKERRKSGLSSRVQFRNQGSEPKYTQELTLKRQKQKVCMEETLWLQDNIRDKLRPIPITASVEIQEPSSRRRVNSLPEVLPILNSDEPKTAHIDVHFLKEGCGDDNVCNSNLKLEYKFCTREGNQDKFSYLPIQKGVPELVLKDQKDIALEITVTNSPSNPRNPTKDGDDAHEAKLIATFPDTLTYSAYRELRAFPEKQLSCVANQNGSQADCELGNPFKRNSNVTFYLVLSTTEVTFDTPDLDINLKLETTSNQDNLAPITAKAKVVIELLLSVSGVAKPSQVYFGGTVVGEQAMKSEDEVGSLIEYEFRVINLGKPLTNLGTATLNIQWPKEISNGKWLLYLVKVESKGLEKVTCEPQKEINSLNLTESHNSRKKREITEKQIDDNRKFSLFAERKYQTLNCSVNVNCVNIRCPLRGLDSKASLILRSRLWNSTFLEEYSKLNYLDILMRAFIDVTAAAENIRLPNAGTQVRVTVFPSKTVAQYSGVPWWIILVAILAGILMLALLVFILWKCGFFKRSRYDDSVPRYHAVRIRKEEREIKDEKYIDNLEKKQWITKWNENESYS
α6β1 integrin on human cells (human), sequence (P05556 21-798, chain 2 of 2, further chain): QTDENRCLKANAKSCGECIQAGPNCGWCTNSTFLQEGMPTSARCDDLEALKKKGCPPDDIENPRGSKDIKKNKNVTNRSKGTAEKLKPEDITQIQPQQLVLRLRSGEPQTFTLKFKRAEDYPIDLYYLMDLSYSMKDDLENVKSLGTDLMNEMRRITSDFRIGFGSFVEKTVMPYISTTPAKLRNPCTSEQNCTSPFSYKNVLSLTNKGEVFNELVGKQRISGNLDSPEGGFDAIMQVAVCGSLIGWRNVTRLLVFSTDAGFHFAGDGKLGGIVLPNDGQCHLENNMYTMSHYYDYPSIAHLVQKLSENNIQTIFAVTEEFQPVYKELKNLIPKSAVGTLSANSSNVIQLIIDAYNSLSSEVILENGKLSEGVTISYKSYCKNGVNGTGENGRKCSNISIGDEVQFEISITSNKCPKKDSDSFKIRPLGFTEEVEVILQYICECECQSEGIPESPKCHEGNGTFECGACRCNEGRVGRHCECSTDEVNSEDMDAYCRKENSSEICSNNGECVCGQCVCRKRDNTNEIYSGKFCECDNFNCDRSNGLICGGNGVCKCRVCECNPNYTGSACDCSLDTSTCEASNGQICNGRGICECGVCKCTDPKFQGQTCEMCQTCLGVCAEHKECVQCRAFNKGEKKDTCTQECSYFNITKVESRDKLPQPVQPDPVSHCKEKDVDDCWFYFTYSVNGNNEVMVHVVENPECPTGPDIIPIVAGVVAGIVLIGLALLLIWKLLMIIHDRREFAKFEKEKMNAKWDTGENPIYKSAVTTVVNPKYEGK

Row | 1064SK fibroblast adhesion to laminin (A620), with anti-α6 antibody (20 µg/ml) [1] [A620] | 1064SK fibroblast adhesion to laminin (A620), without anti-α6 antibody [1] [A620] | inhibition of 1064SK fibroblast adhesion to laminin by anti-α6 antibody [1] [%] | inhibition of 1064SK fibroblast adhesion by anti-α6 antibody (20 µg/ml) [1] [%] | relative binding capacity of HUVE cells on wild-type Cyr61 (5 µg/ml) after pre-incubation with 40 µg/ml anti-αvβ3 antibody (LM609); no pre-incubation = 100 [2] [%] | relative binding capacity of HUVE cells on wild-type Cyr61 (5 µg/ml) after pre-incubation with 1 mM RGD peptide; no pre-incubation = 100 [2] [%] | relative binding capacity of HUVE cells on wild-type Cyr61 (5 µg/ml) after pre-incubation with 2.5 mM EDTA; no pre-incubation = 100 [2] [%] | Substance
1 | 0.48 | 0.62 | 22 | – | – | – | – | laminin (ligand)
2 | – | – | – | 78 | 42 | 50 | 22 | murine Cyr61 (from UniProt P18406 25-379) (ligand)
